The values that follow come from publication PMC9963377.

The assay has as its target tetrameric CDV attachment protein H-ectodomain (strain A75/17), with N-terminal tetrameric GCN4 motif (canine distemper virus (strain A75/17)). The experiment in a line: cryo-EM structure.

For “tetrameric CDV attachment protein H-ectodomain (strain A75/17), with N-terminal tetrameric GCN4 motif (domain or fragment)”, the stoichiometry N (commonly a count of units in the complex or per binding partner) was 4.
